{
  "source": "patent US7022666",
  "target": "LIF receptor/gp130 heterodimer (rat) (UniProt O70535)",
  "sequence (O70535 44-1093, chain 1 of 2)": "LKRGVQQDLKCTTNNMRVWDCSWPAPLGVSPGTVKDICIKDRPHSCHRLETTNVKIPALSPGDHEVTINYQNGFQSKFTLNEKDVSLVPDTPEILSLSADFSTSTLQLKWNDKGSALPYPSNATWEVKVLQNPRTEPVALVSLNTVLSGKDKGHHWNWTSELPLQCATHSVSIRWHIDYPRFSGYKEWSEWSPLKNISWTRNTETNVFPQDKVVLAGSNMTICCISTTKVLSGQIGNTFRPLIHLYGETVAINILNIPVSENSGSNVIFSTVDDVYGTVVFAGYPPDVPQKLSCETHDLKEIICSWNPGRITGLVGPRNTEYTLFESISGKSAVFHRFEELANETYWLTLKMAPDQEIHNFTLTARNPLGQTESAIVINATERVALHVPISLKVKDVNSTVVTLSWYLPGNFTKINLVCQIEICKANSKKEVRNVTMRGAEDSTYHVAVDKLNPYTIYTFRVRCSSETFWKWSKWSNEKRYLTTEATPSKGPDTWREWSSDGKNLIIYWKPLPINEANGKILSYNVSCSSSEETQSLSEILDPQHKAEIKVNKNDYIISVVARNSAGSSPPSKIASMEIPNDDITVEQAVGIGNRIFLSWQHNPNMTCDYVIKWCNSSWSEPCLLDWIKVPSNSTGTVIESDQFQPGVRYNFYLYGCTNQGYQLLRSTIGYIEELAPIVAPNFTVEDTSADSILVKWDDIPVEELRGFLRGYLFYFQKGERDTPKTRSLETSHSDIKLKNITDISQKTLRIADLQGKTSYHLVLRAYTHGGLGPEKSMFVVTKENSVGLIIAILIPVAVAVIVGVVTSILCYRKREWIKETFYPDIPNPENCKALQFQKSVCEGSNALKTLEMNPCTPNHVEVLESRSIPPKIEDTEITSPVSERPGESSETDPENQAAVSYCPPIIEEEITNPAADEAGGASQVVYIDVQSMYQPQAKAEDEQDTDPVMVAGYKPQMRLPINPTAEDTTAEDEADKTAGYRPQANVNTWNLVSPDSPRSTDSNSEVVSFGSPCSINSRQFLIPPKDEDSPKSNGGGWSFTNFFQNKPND",
  "sequence (P40190 23-918, chain 2 of 2, further chain)": "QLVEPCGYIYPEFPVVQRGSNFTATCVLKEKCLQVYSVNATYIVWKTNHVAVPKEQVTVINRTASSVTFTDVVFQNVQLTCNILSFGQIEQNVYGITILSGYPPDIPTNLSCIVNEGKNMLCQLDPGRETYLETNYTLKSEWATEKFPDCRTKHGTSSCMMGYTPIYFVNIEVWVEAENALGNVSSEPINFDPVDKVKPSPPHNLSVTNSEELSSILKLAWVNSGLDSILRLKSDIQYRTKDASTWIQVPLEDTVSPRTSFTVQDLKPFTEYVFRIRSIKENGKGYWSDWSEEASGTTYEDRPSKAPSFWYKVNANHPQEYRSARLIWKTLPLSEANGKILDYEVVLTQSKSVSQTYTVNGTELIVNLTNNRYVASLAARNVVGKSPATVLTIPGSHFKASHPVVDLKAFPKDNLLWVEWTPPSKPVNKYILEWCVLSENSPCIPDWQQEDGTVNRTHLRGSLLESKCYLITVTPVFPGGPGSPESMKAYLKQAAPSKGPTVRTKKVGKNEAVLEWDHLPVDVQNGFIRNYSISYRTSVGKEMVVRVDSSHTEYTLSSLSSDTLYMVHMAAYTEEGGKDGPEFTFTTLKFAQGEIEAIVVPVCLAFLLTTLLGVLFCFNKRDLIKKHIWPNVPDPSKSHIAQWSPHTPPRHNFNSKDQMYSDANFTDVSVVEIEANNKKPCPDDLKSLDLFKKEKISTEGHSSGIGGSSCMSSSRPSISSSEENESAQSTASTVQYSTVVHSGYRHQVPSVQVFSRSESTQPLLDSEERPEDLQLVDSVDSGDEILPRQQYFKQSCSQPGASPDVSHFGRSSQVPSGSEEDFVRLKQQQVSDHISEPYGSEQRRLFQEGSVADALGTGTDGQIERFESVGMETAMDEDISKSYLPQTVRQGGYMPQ",
  "assay": "cell-based or functional assay",
  "data": [
    {"substance": "recombinant leukemia inhibitory factor (ligand)", "values": [
      {"measurement": "conversion of metanephric mesenchyme into epithelia (lowest active dose)", "value": 0.2, "unit": "nM"}
    ]}
  ]
}
